Data on 1 molecule can be found in patent US20120316085A1.

For orientation: Kd means a measure of binding affinity in units of concentration. As usually defined, the koff is a measure of how fast the partners let go of each other. The kon is a measure of how fast the partners come together.

In assay [1] the target is c-Myc-containing recombinant protein. Kind of assay: SPR; KD against WT as reference. Background: Surface plasmon resonance follows binding to a sensor surface in real time, without labels.
For assay [2] the target is unchanged. In words: SPR (Biacore T200), c-Myc-containing recombinant protein immobilised, soluble Fab injected at 5-80 nM, 1:1 Langmuir fit.

B1: aM parental murine Fab (Fab, V domains shown)
VH: QIQLVQSGPELKKPGETVRISCKASGYTFTTAGMQWVQKMPGKGLKWIGWINTHSGVPKYAEDFKGRFAFSLETSASTAYLQMTNLNNEDTATYFCARGYGKGGYFAMDYWGQGTSVTVSS
VL: DVVMTQIPFSLPVSLGDQASISCRSSQSLVHSNGNTYLHWYVQKPGQSPKLLIYKVSNRFSGVPDRFSGSGSGTYFTLKISRVEAEDLGVYFCSQSTRVPWTFGGGTKLEIK
Regarding B1, the Fold change in assay [1] came out at 1 fold. Further, in assay [2], the Kd is 110 nM, the koff was 0.018 s⁻¹ and the kon was 160000 M⁻¹ s⁻¹.
